We go through three molecules from patent publication US20200078442A1 (ARCH BIOPARTNERS, published 2020).

Data set [1] has as its target T1, human membrane dipeptidase (DPEP-1) (human, UniProt P16444 17-385).
T1 construct: whole, on cells; The background section describes DPEP-1 as a disulfide-linked homodimer; also called renal dipeptidase; dehydropeptidase-1
T1 sequence (looked up): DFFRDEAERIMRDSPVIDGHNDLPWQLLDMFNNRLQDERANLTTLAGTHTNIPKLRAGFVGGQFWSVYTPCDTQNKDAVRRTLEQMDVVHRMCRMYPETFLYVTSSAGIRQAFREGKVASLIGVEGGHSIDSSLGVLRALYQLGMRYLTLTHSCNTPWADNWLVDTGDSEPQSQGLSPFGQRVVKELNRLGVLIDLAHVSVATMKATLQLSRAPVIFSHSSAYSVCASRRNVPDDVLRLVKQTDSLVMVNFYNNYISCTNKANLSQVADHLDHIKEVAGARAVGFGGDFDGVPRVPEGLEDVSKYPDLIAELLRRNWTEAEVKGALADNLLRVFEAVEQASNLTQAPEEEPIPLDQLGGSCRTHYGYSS
Nature of the data set: immunofluorescence microscopy of Alexa-488 peptide on Cos-1 cells transfected with human DPEP-1.

In data set [2] the target is T2, rat membrane dipeptidase (DPEP-1) (rat, UniProt P31430 17-384).
T2 construct: whole, on cells; Transiently expressed on Cos-1 or Cos-7 cells; also called renal rat membrane dipeptidase; rat DPEP-1
Nature of the data set: immunofluorescence microscopy of Alexa-488 peptide on Cos-1 cells transfected with rat DPEP-1. As for the experimental part: Cos-1 cells were transiently transfected with either 3 or 5 μg of membrane dipeptidase (DPEP-1) cDNA corresponding to the rat (Shown in FIG. 5A) or human DPEP-1 (Shown in FIG. 5B) gene using lipofectamine 2000 (Invitrogen) reagent in OptiMEM medium. 24 hours after transfection, DPEP-1 expressing cells were re-seeded on collagen coated (neutralized) wells in 24 well plates and allowed to grow for 24 hours at 37° C. 24 hours after seeding, media was removed and cells were washed with PBS. Cells were blocked with FBS/NBSA/Tween in PBS for 30 minutes on ice. Cells were then washed with PBS and incubated with Alexa-488 (green) conjugated LSALT, GFE-1, control peptide or DPEP-1 antibody ( 1/100) (Sigma) on ice for 30 minutes. […] After incubation, cells were washed with PBS and treated with 10 mg/ml biotin transfer peptide (LSALT, GFE-1 or Control Peptide (KGAL)] for 10 minutes. Cells were then washed with PBS and biotin transfer was enabled by UV activation of the aryl azide groups for 15 minutes at 363 nm. Residual fluid was removed and monolayers were lysed either with octyl-glucoside/RIPA or 8M urea. Isolated supernatants were rotated with 50 μl of neutr-avidin agarose beads at 4° C. for 24 hours. Beads were washed with corresponding buffers, boiled in Laemmli buffer and analyzed by western blot using a DPEP-1 specific antibody (Proteintech).

The next data set has as its target T3, human DPEP2 (human, UniProt Q9H4A9 33-463).
T3 construct: whole, on cells; Transiently expressed on Cos-1 cells
Nature of the data set: immunofluorescence microscopy of Alexa-488 peptide on transfected Cos-1 cells. The protocol:
(§1) Cos-1 cells were transiently transfected with either 3 μg of human DPEP-1, DPEP2, or DPEP3 gene using lipofectamine 2000 (Invitrogen) reagent in OptiMEM medium. 24 hours after transfection, DPEP-1, DPEP2, or DPEP3 expressing cells were re-seeded on collagen coated (neutralized) wells in 24 well plates and allowed to grow for 24 hours at 37° C. 24 hours after seeding, media was removed and cells were washed with PBS. Cells were blocked with FBS/NBSA/Tween in PBS for 30 minutes on ice. Cells were then washed with PBS and incubated with LSALT or GFE-1, conjugated with Alexa-488 (green). After incubation, cells were washed with PBS and stained with DAPI for 5 minutes on ice. Cells were then washed with PBS and fixed using 4% paraformaldehyde and immunofluorescence microscopy was performed to assess binding. Representative photomicrographs are shown for each experimental condition (n=3) in FIG. 6A. Proteins from DPEP-1, DPEP2 and DPEP3 transfected cells were isolated after 48 hours using octyl-glucoside/RIPA lysis buffer and western blot analysis was performed to assess DPEP-1, DPEP2 and DPEP3 protein expression using specific antibodies; DPEP-1 antibody (Sigma), DPEP2 (Abcam) and DPEP3 (Santacruz). Blots were stripped and reprobed with an anti-β-actin.

A further data set addresses T4, human DPEP3 (human, UniProt Q9H4B8 36-463).
T4 construct: whole, on cells; Transiently expressed on Cos-1 cells
T4 sequence (looked up): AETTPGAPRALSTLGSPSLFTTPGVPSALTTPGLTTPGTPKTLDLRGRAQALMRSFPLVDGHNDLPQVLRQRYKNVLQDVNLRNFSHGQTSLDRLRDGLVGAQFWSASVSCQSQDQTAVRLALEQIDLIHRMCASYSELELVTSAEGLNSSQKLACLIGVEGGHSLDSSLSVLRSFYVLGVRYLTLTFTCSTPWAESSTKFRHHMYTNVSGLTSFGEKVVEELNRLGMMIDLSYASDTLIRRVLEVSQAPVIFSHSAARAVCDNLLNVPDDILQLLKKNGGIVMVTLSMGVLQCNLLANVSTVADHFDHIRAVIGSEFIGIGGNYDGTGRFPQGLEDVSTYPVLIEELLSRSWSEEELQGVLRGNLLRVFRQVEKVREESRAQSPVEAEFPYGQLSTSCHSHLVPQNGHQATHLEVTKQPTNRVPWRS
The description is as above. The protocol:
as §1

For data set [3], the target named is T2, rat membrane dipeptidase (DPEP-1). Nature of the data set: immunofluorescence microscopy of Alexa-568 peptide on Cos-7 cells transfected with rat DPEP-1. As for the experimental part:
Cos-7 cells were transiently transfected with 5 μg of renal rat membrane dipeptidase (DPEP-1) plasmid using lipofectamine 2000 (Invitrogen) reagent. 48 hours after transfection, media was removed and cells were washed with PBS. Cells were incubated with LSALT conjugated with Alexa-488 (Green), GFE-1 peptide conjugated with Alexa-568 (Red) or control peptide conjugated with Alexa-488 (Green) on ice for 30 minutes. Cells were washed and fixed using 4% paraformaldehyde and immunofluorescence microscopy was performed to assess binding. Shown are representative photomicrographs of each experimental condition (n=2).

Data set [4] has as its target T5, LSALT peptide (LSALTPSPSWLKYKAL).
T5 chain: LSALTPSPSWLKYKAL

Ends that are not written are not given here.

T3 sequence (Q9H4A9 33-463): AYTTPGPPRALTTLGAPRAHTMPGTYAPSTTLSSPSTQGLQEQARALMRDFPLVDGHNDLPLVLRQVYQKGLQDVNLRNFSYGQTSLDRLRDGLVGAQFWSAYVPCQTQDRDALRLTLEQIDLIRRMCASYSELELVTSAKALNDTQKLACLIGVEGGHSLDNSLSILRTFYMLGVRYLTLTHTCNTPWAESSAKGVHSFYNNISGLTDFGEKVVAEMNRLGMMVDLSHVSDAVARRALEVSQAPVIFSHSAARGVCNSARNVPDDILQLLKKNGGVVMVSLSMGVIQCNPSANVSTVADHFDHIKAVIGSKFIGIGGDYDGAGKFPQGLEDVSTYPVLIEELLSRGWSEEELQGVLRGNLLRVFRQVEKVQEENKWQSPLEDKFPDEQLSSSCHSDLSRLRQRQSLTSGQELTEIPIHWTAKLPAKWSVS
T2 sequence (P31430 17-384): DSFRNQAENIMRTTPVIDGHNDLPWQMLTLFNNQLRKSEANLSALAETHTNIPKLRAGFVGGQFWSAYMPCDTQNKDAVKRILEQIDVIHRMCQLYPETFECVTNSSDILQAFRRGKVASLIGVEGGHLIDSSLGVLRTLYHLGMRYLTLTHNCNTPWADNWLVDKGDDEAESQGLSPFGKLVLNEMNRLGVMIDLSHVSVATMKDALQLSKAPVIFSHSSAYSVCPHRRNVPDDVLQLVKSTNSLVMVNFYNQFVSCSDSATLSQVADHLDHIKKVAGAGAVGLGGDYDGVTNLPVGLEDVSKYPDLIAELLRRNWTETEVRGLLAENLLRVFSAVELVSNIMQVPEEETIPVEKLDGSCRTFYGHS

B1: LSALT peptide (LSALTPSPSWLKYKAL) (peptide)
peptide: LSALTPSPSWLKYKAL
modifications: also: Alexa-488 conjugate in binding assays, site not given here
notes: Phage-display derived peptide; also called Metablok
Turning to B1, the binding result in data set [1] was “binds”; in data set [2], “binds”; with human DPEP2 it was “no binding”; in the data set with human DPEP3, “no binding”.

B2: GFE-1 peptide (CGFECVRQCPERC) (peptide)
peptide: CGFECVRQCPERC
modifications: cysteine pairing not given here; also: conjugated with Alexa-488 or Alexa-568, attachment site not given here
For the molecule B2, the results for the binding result (in data set [3]; with human DPEP2; with human DPEP3) were “binds”, “no binding” and “no binding”, respectively.

B3: human membrane dipeptidase (DPEP-1) (protein)
chain: T1 sequence (looked up)
B3: in data set [4], the “membrane dipeptidase (DPEP-1) enzyme activity (Gly-D-Phe substrate, fluorimetric detection of D-Phe)” value was “LSALT does not Inhibit Membrane Dipeptidase (DPEP-1) Enzyme Activity”.
